Results from US20200255503A1 (Regeneron, published 2020).
Changes are numbered by the printed parent chain. Names and notes keep the numbering of the source.

B1: H4H1232N (antibody, human IgG4, V domains shown)
VH: EVQLVESGGGLVKPGGSLRLSCAASGFTFRNYNINWVRQAPGKGLEWVSLISGSSSYIYYADSVKGRFTVSRDNAKNSLYLQMNSLRAEDTAVYYCARRTLSYYVMDVWGQGTTVTVSS
VL: DIQVTQSPSPLSASVGDRVTITCRASQGISNYLAWYQQKPGRVPQLLIYAASTLQSGVPSRFSGSGSGTDFTLTISSLQPEDVATYYCQKYNSAPYTFGQGTKLEIK
notes: human IgG4 Fc (prefix H4H); also called REGN1908
B2: H4H2636P (antibody, human IgG4, V domains shown)
VH: EVQLVESGGGLVQPGGSLRLSCAASGFTFSSYAMSWVRQAPGKGLEWVSAISGRGYNADYADSVKGRFTISRDNSKNTLYLQMNSLRAEDTAVYYCAKLEYFDYWGQGTLVTVSS
VL: DIQMTQSPSTLSASVGDRVTITCRASQSISSWLAWYQQKPGKAPKLLIYKASSLESGVPSRFSGSGSGTDFTLTISSLRPEDFATYYCQQYNSYPLTFGGGTKVEIK
notes: human IgG4 Fc (prefix H4H); also called REGN1909
B3: H2M1233N (antibody, mouse IgG2, V domains shown)
VH: QVVLVESGGGVVQPGRSLRLSCAASGFTFSSYGMHWVRQAPGKGLEWVAVIWYDGSNKYYVDSVKGRFTISRDNSNNTIYLQMNSLRAEDTAVYYCARSLIPVAGTDPIFGYWGQGTLVTVSS
VL: DIQMTQSPSTLSASVGDRVTITCRASQSVSSWLAWYQQKPGKAPKLLIFKASGLESGVPFRFSGSGSGTEFTLTISSLQPDDFATYYCQQYNTYSPTFGQGTKVEIK
notes: chimeric, human variable domains with mouse IgG2 Fc (prefix H2M)
B4: H2M1242N (antibody, mouse IgG2, V domains shown)
VH: EVQLVESGGGLVRPGGSLRLSCAASGFTFTSYAMNWVRQAPGKGLEWVSSISSYSSYIYIADSVKGRFTLSRDNAKNSLYLQMHSLRPEDTAVYFCAREGYSAYSYFDFWGRGTLVTVSS
VL: B3 VL with S30I, F49H, K50R, G53S, F60S, S77G, S95F, I106V
notes: as for B3
B5: H2M1237N (antibody, mouse IgG2, V domains shown)
VH: B3 VH with N57I, V61A, S99A
VL: B3 VL with A51T
notes: as for B3
B6: H2M1236N (antibody, mouse IgG2, V domains shown)
VH: QVQLQESGPGLVKPSETLSLTCTVSGGSISNYYWSWIRQPPGKGLEWIGYIYYSGRTNYNPSLKSRVTISVDTSKNQFSLKLRSVTAADTAVYYCARHRITRTADSFDYWGQGTLVTVSS
VL: DIQMTQSPSSLSASVGDRVTITCQASQDITNYLNWYQQKPGKAPKLLIYDASNLETGVPSRFSGSGSGTDFTFTISSLQPEDVATFYCHQYGDLPYTFGQGTKLEIK
notes: as for B3
B7: H4H2597B (antibody, human IgG4, V domains shown)
VH: EVQLVESGGGLVQPGGSLRLSCAVSGFTFSNYAMNWVRQAPGKGLEWVSVISDSGRSTYYADSVKGRFTISRDNSKNTLYLQMNSLRAEDTAVYFCAKRYNWNLHYFDYWGQGTTVTVSS
VL: EIVLTQSPDFQSVTPKEKVTITCRASQSIGGSLHWYQQKPDQSPKLLIKYASQSFSGVPSRFSGSGSGTDFTLTINSLEAEDAATYYCLQSSSLRTFGQGTKVEIKR
notes: human IgG4 Fc (prefix H4H)
B8: H4H2606B (antibody, human IgG4, V domains shown)
VH: EVQLVESGGGLVKPGGSLRLSCAASGFTFSDYYMNWIRQAPGKGLEWVSYISSSGNSIYYADSVKGRFTISRDNAKNSLFLQMSSLRAEDTAVYYCARDGRYNDRRRGYYWGQGTLVTVSS
VL: B7 VL with L4M, G31S
notes: human IgG4 Fc (prefix H4H)
B9: H4H2594S (antibody, human IgG4, V domains shown)
VH: EVQLVESGGGLVKPGGSLRLSCAASGFTFSDYYMNWIRQAPGKGLEWVSYISSSGSSIYYADSVKGRFTISRDNAKNSLYLLMNSLRAEDTAVYYCARDGKYNSSPGDYWGQGTLVTVSS
VL: DIQMTQSPSSLSASVGDRVTIACRASQGISNYLAWFQQKPGKAPKSLIYAASSLQSGVPSKFSGSGSGTDFTLTISSLQPEDFATYYCQQYNSYPLTFGGGTKVEIKR
notes: human IgG4 Fc (prefix H4H)
B10: H4H2607B (antibody, human IgG4, V domains shown)
VH: B9 VH with V48I, I51L, S57A, I58T, L82Q, S104T, S105V, P106A, L115T
VL: DIQLTQSPSSLSASVGDRVTITCRASQGIRNDLGWYQQKPGKAPKRLIYAASSLQSGVPSRFSGSGSGTEFTLTISSLQPEDFATYYCLQHNSYPYTFGQGTKVEIKR
notes: human IgG4 Fc (prefix H4H)
B11: H4H2797P (antibody, human IgG4, V domains shown)
VH: QVQLVESGGGVVLPGRSLRLSCAASGFTFSSYLMYWVRQAPGKGLEWVAVIWYDGSNKFYGDSVKGRFTISRDNSKNTLYLQMNSLRAEDTAVYYCARDNGNSGYEDSWNAFDIWGQGTMVTVSS
VL: DIQMTQSPSSLSASVGDRVTITCRASQDIYNYLAWFQQKPGKAPKSLIYAASSLQTGVPSQFSGSGSGTDFTLTISSLQPEDFATYYCQQYNNYPFTFGPGTKVDIK
notes: human IgG4 Fc (prefix H4H)
B12: H4H2645P (antibody, human IgG4, V domains shown)
VH: B2 VH with S31T, S35H, A50S, Y56R, A58S, Y60H, K98R, L99T, D103H, Y104H
VL: B11 VL with V19I, Y30N, A50G, T56S, Q61K, N92S, N93S
notes: human IgG4 Fc (prefix H4H)
B13: H1M1230N (antibody, V domains shown)
VH: EVQLVESGGGLVQPGGSLRLSCTASGFIFSNFWMTWVRQAPGKGLEWVANIKQDGSETYCVDSVKGRFTISRDHAKNSLFLQMNSLRAEDTAVYYCARGAGTIYYYGMDVWGQGTTVIVSS
VL: DIQMTQSPSSVSASVGDRLTITCRASQDISSWLTWYQQKPGKAPNLLIYAASGLQSGVPSRFSGSGSGTDFTLTISNLQPEDFATYYCQQANSFPLTFGQGTRLEIK
notes: chimeric, human variable domains with mouse Fc (prefix H1M)
B14: H1M1234N (antibody, V domains shown)
VH: QVQLQQSGPGLVKSSQTLSLTCAISGDSVSSNSVAWNWIRQSPSRGLEWLGRTYYRSKWYNDYAVSVKSRININPDTSKNHFSLQLNSVTPEDTAVYFCARAWNWYYLDYWGQGTLVTVSS
VL: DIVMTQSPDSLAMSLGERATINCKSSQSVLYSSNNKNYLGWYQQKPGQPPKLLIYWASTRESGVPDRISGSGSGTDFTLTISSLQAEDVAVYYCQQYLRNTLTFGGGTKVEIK
notes: as for B13
B15: H1M1241N (antibody, V domains shown)
VH: EVQLVESGGGLVKPGGSLRLSCAASGFTFSSYSMNWVRQAPGKGLEWVSSISSRSSYIYYADSVKGRFTISRDNAKNSLYLQMNSLRAEDTAVYYCARDHIVVVPGASYYYYGMDVWGQGTTVTVSS
VL: DIQMTQSPSSLSASVGDRVTITCRASQGIRNDLGWYQQKPGKAPKRLISAASSLQSGVPSRFSGSGSGTEFTLTISSLQPEDFATYYCLQHNSYPLTFGGGTKVEIK
notes: as for B13
B16: H4H2864P (antibody, human IgG4, V domains shown)
VH: EVQLVESGGGLAQPGGSLRLSCAASGFTFNNYAMTWVRQAPGKGLDWVSAISDSGRSTFSADSVKGRFTISRDNSKNTLYLQMDSLRAEDTALYYCAKHRNWNYPVFDYWGQGTLVTVSS
VL: DIQLTQSPSFLSASVGDRVTITCWASQGISSYLAWYQQKPGKAPKLLIYSASTLQSGVPSRFSGSGSGTEFTLTISSLQPEDFATYYCQQLNSYPFTFGPGTKVDIK
notes: human IgG4 Fc (prefix H4H)
B17: H4H2636B (antibody, human IgG4, V domains shown)
VH: B2 VH with L110T
VL: DIQLTQSPSTLSASVGDRVTITCRASQSISSWLAWYQQKPGKAPKLLIYKASSLESGVPSRFSGSGSGTDFTLTISSLRPEDFATYYCQQYNSYPLTFGGGTKVEIKR
notes: human IgG4 Fc (prefix H4H)
B18: H4H1616N (antibody, human IgG4, V domains shown)
VH: EVELLESGGGLVQPGGSLRLSCAASGFTFSSYAMSWVRQAPGKGLEWVSSISGRVGSTHFADSVKGRFTFSRDNSKNTLYLQLSSLRAEDTAVYYCARSRGAAYFDYWGQGTLVTVSS
VL: DIQMTQSPSSLSASVGDRVTITCQANQDISNFLNWYQQRPGKAPNLLIYAASNLETGVPSRFSGSGSGTDFTFTISSLQPEDIATYYCQHYDNFPFTFGPGTKVDIK
notes: human IgG4 Fc (prefix H4H)

Target: rFel d1.mFc (dimeric) (cat (Felis domesticus))
Experiment: SPR Biacore T200, mAb captured by anti-human Fc, antigen injected
Source text: (§1) The binding kinetic parameters were obtained by globally fitting the double reference subtracted data to a 1:1 binding model with mass transport limitation using Biacore T200 Evaluation Software, version 1.0.

Chain of rFel d1.mFc (dimeric) (cat (Felis domesticus)) (chain, as listed by the source limits assumed): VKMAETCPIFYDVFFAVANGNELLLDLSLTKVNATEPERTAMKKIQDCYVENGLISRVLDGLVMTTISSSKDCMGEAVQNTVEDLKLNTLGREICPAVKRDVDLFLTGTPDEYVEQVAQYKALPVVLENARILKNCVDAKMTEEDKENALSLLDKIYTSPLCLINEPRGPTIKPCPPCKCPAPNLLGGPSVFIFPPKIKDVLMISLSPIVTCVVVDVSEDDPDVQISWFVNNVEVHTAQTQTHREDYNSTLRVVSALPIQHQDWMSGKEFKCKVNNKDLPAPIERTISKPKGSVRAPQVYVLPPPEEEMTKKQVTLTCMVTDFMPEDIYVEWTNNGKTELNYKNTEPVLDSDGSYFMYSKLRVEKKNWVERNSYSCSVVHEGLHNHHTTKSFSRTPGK

Binder | Kd [nM] | T1/2 [min] | koff [s⁻¹] | kon [M⁻¹ s⁻¹]
B1 | 0.0316 | 159 | 7.25e-05 | 2.3e+06
B2 | 0.0978 | 254 | 4.55e-05 | 466000

Target: T1, Fel d1 (B-A)-mmH (cat (Felis domesticus))
T1 construct: Expressed in CHO cells; also called rFel d1.mmH; rFel d1-mmH
Experiment: as above
Source text: as §1

T1 sequence (chain, as listed by the source limits assumed): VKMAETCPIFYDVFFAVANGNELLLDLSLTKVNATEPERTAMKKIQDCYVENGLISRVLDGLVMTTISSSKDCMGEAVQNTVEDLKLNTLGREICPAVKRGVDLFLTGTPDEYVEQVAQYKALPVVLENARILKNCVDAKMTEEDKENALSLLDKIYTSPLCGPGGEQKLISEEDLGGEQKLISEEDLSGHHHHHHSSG

Binder | Kd [nM] | T1/2 [min] | koff [s⁻¹] | kon [M⁻¹ s⁻¹]
B1 | 0.187 | 46 | 0.000251 | 1.34e+06
B2 | 0.912 | 49 | 0.000235 | 257000

Target: T1, Fel d1 (B-A)-mmH
Experiment: SPR, mAb captured, Fel d1 (B-A)-mmH injected, 25 C;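 also: rate constants obtained by fitting sensorgrams to a one-to-one binding model, Kd computed as koff over kon, half-life derived from koff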
Procedure: Antibody-antigen association was monitored for 3 to 5 minutes, and the dissociation of antigen from the captured monoclonal antibody (in running buffer alone at 25° C.) was monitored for 10 or 15 minutes. Kinetic association (kₐ) and dissociation (kₐ) rate constants were determined by processing and fitting the data to a 1:1 binding model using Scrubber 2.0 curve fitting software. Binding dissociation equilibrium constants (KD) and dissociative half-lives (t_{1/2}) were calculated from the kinetic rate constants as: KD=kd/kₐ and t_{1/2}=ln(2)/kₐ.

Binder | Kd [nM] | koff [s⁻¹] | kon [M⁻¹ s⁻¹] | t1/2 [min]
B3 | 0.544 | 0.000166 | 305000 | 70
B4 | 0.449 | 0.000122 | 272000 | 94
B5 | 0.458 | 0.000165 | 359000 | 70
B6 | 0.558 | 0.000232 | 415000 | 50
B7 | 0.501 | 0.000558 | 1.12e+06 | 21
B8 | 0.388 | 0.000486 | 1.26e+06 | 24
B9 | 0.402 | 0.000521 | 1.3e+06 | 22
B10 | 0.364 | 0.000563 | 1.55e+06 | 21
B1 | 0.144 | 0.000258 | 1.79e+06 | 45
B11 | 4.69 | 0.00205 | 437000 | 6
B12 | 0.368 | 0.000179 | 487000 | 65
B13 | 1.31 | 0.00051 | 388000 | 23
B14 | 5.58 | 0.00142 | 254000 | 8
B15 | 0.331 | 0.000112 | 337000 | 104
B16 | 0.576 | 0.000309 | 537000 | 37
B17 | 0.924 | 0.000228 | 247000 | 51
B2 | 0.912 | 0.000235 | 257000 | 49
B18 | 8.21 | 0.00188 | 229000 | 6
